Data published in paper doi:10.1101/202184 (bioRxiv, 2017).

B1: SecE (subunit of Escherichia coli SecYEG) (natural protein)
chain: MSANTEAQGSGRGLEAMKWVVVVALLLVAIVGNYLYRDIMLPLRALAVVILIAAAGGVALLTTKGKATVAFAREARTEVRKVIWPTRQETLHTTLIVAAVTAVMSLILWGLDGILVRLVSFITGLRF
B2: SecG (subunit of Escherichia coli SecYEG) (natural protein)
chain: MYEALLVVFLIVAIGLVGLIMLQQGKGADMGASFGAGASATLFGSSGSGNFMTRMTALLATLFFIISLVLGNINSNKTNKGSEWENLSAPAKTEQTQPAAPAKPTSDIPN

Columns and labels:
[1] = biological target: T1, SecY (wild type, subunit of Escherichia coli SecYEG) (E. coli, UniProt P0AGA2 1-443); assay: native MS
T1 sequence: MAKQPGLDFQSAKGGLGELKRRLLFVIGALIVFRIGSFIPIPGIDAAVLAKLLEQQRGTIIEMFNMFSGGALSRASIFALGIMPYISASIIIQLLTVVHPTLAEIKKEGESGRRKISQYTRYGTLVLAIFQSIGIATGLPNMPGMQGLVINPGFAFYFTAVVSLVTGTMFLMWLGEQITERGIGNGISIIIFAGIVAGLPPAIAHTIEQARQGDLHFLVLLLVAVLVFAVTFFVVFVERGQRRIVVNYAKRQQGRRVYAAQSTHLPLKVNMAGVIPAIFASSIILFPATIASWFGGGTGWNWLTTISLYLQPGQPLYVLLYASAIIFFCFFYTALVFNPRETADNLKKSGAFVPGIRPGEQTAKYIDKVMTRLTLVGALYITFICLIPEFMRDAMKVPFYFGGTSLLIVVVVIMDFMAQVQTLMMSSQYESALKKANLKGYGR

[2] = biological target: B1; assay: native MS

B1
binding result [1]: binds

B2
binding result [1]: binds | binding result [2]: binds
